# Measured values taken from patent publication US20250333749A1, “INDUCIBLE PROMOTER, VECTOR AND HOST CELL BASED THEREON” (JOINT STOCK COMPANY «BIOCAD», priority 2021, published 2025).
# B1: IL10: Recombinant human IL10 used as an activator (protein)
# chain: SPGQGTQSENSCTHFPGNLPNMLRDLRDAFSRVKTFFQMKDQLDNLLLKESLLEDFKGYLGCQALSEMIQFYLEEVMPQAENQDPDIKAHVNSLGENLKTLRLRLRRCHRFLPCENKSKAVEQVKNAFNKLQEKGIYKAMSEFDIFINYIEAYMTMKIRN
# B2: GAS6: the AXL ligand GAS6; activator of AXL-dependent cell signaling (protein)
# chain: AFQVFEEAKQGHLERECVEELCSREEAREVFENDPETDYFYPRYLDCINKYGSPYTKNSGFATCVQNLPDQCTPNPCDRKGTQACQDLMGNFFCLCKAGWGGRLCDKDVNECSQENGGCLQICHNKPGSFHCSCHSGFELSSDGRTCQDIDECADSEACGEARCKNLPGSYSCLCDEGFAYSSQEKACRDVDECLQGRCEQVCVNSPGSYTCHCDGRGGLKLSQDMDTCEDILPCVPFSVAKSVKSLYLGRMFSGTPVIRLRFKRLQPTRLVAEFDFRTFDPEGILLFAGGHQDSTWIVLALRAGRLELQLRYNGVGRVTSSGPVINHGMWQTISVEELARNLVIKVNRDAVMKIAVAGDLFQPERGLYHLNLTVGGIPFHEKDLVQPINPRLDGCMRSWNWLNGEDTTIQETVKVNTRMQCFSVTERGSFYPGSGFAFYSLDYMRTPLDVGTESTWEVEVVAHIRPAADTGVLFALWAPDLRAVPLSVALVDYHSTKKLKKQLVVLAVEHTALALMEIKVCDGQEHVVTVSLRDGEATLEVDGTRGQSEVSAAQLQERLAVLERHLRSPVLTFAGGLPDVPVTSAPVTAFYRGCMTLEVNRRLLDLDEAAYKHSDITAHSCPPVEPAAA
# Tests used:
# [1] = system: HEK293 Nf-kB reporter line; assay: Activation of HEK293 Nf-kB reporter line by PMA (luciferase); assay type: cell-based; conditions: 24 hours incubation; FIG. 5
# Experimental: (§1) We used a PMA activator to screen clonal reporter lines. This agent directly effects protein kinase C, thus triggering signaling cascades that activate the reporter gene expression (https://doi.org/10.1007/s11373-005-1210-5; doi: 10.1093/carcin/bgm261). To determine the optimal dose of PMA, we conducted experiments involving activation of the HEK293 Nf-kB reporter line. Cells were seeded in a white 96-well culture plate for adhesion cultures at 3*10^5 cells per well, and PMA activator was added at concentrations indicated in the graph up to 150 μl in a well. All solutions were prepared in DMEM growth medium supplemented with 10% fetal bovine serum, 2 mM L-glutamine and 10 μg/ml gentamicin. The plate was incubated for 24 hours at 37° C. in a humid atmosphere in the presence of 5% CO2. Following incubation, the wells were drained, and 100 μl of luciferin substrate with a lysing component was added, the plate was left in the dark for 10 minutes, after which the luminescence level was detected using a plate reader using the SparkControl V2.1 software package (Tecan, Austria).
# [2] = target: AXL receptor expressed on HEK293 reporter cells (HEK293_STAT3-STAT5-AP1_FLuc_AXL; HEK293_AXL_STAT3-STAT5-AP1_FLuc) (UniProt P30530); assay: cell-based or functional assay
# [3] = system: HEK293-STAT3-STAT5-AP1_FLuc_IL10R cells (IL-10 receptor); assay: IL10 activity determination test (luciferase expression activation); assay type: cell-based, human; conditions: various concentrations of IL10; FIG. 8
# Experimental: as §1
# To evaluate the reporter line in a specific cell test, we expressed the IL-10 receptor onto the surface of the reporter cells. To this end, the HEK293_STAT3-STAT5-AP1_FLuc reporter cell line produced in Example 4 was transfected with plasmid vectors encoding IL-10 receptor subunits produced in Example 2. […]
# [4] = system: HEK293_STAT3-STAT5-AP1_FLuc_AXL cells (AXL receptor); assay: GAS6-dependent AXL-mediated activation of reporter cell line HEK293_STAT3-STAT5-AP1_FLuc_AXL; assay type: cell-based; conditions: GAS6 2 μg/ml
# Experimental: (§2) To generate the reporter cell line HEK293_STAT3-STAT5-AP1_FLuc_AXL, we used three clones of the universal reporter cell line HEK293_STAT3-STAT5-AP1_FLuc: cl. D1, cl. B3 and cl. C4 #2; on the basis of them, we produced, respectively, 3 pools of cells with an embedded constitutionally expressed AXL receptor gene. AXL-mediated activation of these pools was tested. The test was performed in a 96-well culture plate designed for luminescence assays. […] The final volume of the cell suspension in a well was 100 μl, all components of the suspension were prepared in DMEM medium free of fetal bovine serum. After adding all the components, the plate was incubated for 16 hours at 37° C., 5% CO2, and then, using a luminescence assay kit, we measured the luminescence intensity in the wells. The measurement was carried out using a plate reader. The activation level was calculated as the ratio of luminescence level for a given pool in the presence of GAS6 to luminescence level in the absence of GAS6.
# B3 and cl. […] D1. […]
# The test was performed similarly to the procedure described in Example 7, we used the cells of the reporter line HEK293_STAT3-STAT5-AP1_FLuc_AXL (cl.13) and GAS6 at a concentration of 2 μg/ml (FIG. 11) for activation; following adding all the components, the plate was incubated for the time shown in the graph, the luminescence intensity in the wells was then determined. […]
# [5] = system: HEK293_AXL_STAT3-STAT5-AP1 cells (AXL overexpresser); assay: GAS6 activation of reporter cell line HEK293_AXL_STAT3-STAT5-AP1 as a function of cell count; assay type: cell-based; conditions: GAS6 2 μg/ml; 96-well plate; FIG. 17
# Experimental: as §2
# To create the reporter cell line HEK293_AXL_STAT3-STAT5-AP1_FLuc, we used the cell line HEK293_AXL, an AXL overexpresser, on the basis of which we produced a pool of cells comprising a gene encoding firefly luciferase under the control of STAT3-STAT5-AP1 promoter. […] The test was performed in a similar fashion to the procedure described in Example 7, at a concentration of GAS6 of 2 μg/ml. […]
# Chain of UniProt P30530 (P30530 26-894 limits assumed): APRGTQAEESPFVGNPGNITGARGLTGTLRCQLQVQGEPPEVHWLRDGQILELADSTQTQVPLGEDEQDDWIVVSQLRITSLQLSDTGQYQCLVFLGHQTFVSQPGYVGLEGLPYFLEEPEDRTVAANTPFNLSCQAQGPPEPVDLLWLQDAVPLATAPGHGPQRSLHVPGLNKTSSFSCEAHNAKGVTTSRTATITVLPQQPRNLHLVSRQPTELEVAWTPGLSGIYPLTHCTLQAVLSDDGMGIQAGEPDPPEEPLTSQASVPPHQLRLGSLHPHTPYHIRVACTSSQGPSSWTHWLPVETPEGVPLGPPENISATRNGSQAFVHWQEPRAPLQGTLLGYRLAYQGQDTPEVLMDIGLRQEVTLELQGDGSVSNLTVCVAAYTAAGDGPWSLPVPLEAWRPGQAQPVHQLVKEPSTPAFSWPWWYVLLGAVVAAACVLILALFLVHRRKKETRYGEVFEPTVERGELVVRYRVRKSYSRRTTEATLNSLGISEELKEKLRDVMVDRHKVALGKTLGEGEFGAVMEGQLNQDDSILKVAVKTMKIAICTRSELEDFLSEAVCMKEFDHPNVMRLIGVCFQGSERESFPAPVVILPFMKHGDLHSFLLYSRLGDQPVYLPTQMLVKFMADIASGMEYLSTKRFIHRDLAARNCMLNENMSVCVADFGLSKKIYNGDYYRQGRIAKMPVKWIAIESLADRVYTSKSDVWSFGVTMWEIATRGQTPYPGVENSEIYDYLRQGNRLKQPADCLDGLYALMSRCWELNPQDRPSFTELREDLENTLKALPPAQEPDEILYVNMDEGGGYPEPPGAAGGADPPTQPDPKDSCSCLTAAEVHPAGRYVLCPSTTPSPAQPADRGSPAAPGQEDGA
molecule,measurement,setting,value
CCCCCCCCCCCCCC(=O)O[C@@H]1[C@@H](C)[C@@]2(O)[C@@H](C=C(CO)C[C@]3(O)C(=O)C(C)=C[C@@H]23)[C@@H]2C(C)(C)[C@]12OC(C)=O [PMA],optimal concentration of the PMA activator,[1],33 nM
AXL ligand GAS6 (from UniProt Q14393 49-678),"level of GAS6-dependent activation, well A1 (fold over non-activated cells)",[2],1.35
same,"level of GAS6-dependent activation, well A2 (fold over non-activated cells)",[2],1.59
same,"level of GAS6-dependent activation, well A3 (fold over non-activated cells)",[2],8.66
same,"level of GAS6-dependent activation, well A4 (fold over non-activated cells)",[2],1.09
same,"level of GAS6-dependent activation, well A6 (fold over non-activated cells)",[2],1.49
same,"level of GAS6-dependent activation, well A7 (fold over non-activated cells)",[2],2.16
same,"level of GAS6-dependent activation, well A8 (fold over non-activated cells)",[2],0.85
same,"level of GAS6-dependent activation, well A9 (fold over non-activated cells)",[2],0.96
same,"level of GAS6-dependent activation, well A10 (fold over non-activated cells)",[2],6.93
same,"level of GAS6-dependent activation, well A11 (fold over non-activated cells)",[2],1.54
same,"level of GAS6-dependent activation, well B1 (fold over non-activated cells)",[2],1.09
same,"level of GAS6-dependent activation, well B2 (fold over non-activated cells)",[2],2.12
same,"level of GAS6-dependent activation, well B3 (fold over non-activated cells)",[2],1.33
same,"level of GAS6-dependent activation, well B4 (fold over non-activated cells)",[2],1.28
same,"level of GAS6-dependent activation, well B5 (fold over non-activated cells)",[2],1.5
same,"level of GAS6-dependent activation, well B6 (fold over non-activated cells)",[2],0.99
same,"level of GAS6-dependent activation, well B7 (fold over non-activated cells)",[2],1.12
same,"level of GAS6-dependent activation, well B8 (fold over non-activated cells)",[2],2.1
same,"level of GAS6-dependent activation, well B9 (fold over non-activated cells)",[2],1.26
same,"level of GAS6-dependent activation, well B10 (fold over non-activated cells)",[2],1.58
same,"level of GAS6-dependent activation, well B11 (fold over non-activated cells)",[2],2.56
same,"level of GAS6-dependent activation, well B12 (fold over non-activated cells)",[2],1.4
same,"level of GAS6-dependent activation, well C1 (fold over non-activated cells)",[2],0.92
same,"level of GAS6-dependent activation, well C2 (fold over non-activated cells)",[2],1.32
same,"level of GAS6-dependent activation, well C3 (fold over non-activated cells)",[2],0.95
same,"level of GAS6-dependent activation, well C4 (fold over non-activated cells)",[2],1.2
same,"level of GAS6-dependent activation, well C5 (fold over non-activated cells)",[2],1.2
same,"level of GAS6-dependent activation, well C6 (fold over non-activated cells)",[2],4.37
same,"level of GAS6-dependent activation, well C8 (fold over non-activated cells)",[2],1.04
same,"level of GAS6-dependent activation, well C9 (fold over non-activated cells)",[2],1.77
same,"level of GAS6-dependent activation, well C10 (fold over non-activated cells)",[2],3.15
same,"level of GAS6-dependent activation, well C11 (fold over non-activated cells)",[2],5.55
same,"level of GAS6-dependent activation, well C12 (fold over non-activated cells)",[2],1.47
same,"level of GAS6-dependent activation, well D1 (fold over non-activated cells)",[2],1.25
same,"level of GAS6-dependent activation, well D2 (fold over non-activated cells)",[2],1.29
same,"level of GAS6-dependent activation, well D3 (fold over non-activated cells)",[2],2.38
same,"level of GAS6-dependent activation, well D4 (fold over non-activated cells)",[2],2.41
same,"level of GAS6-dependent activation, well D5 (fold over non-activated cells)",[2],2.63
same,"level of GAS6-dependent activation, well D6 (fold over non-activated cells)",[2],1.32
same,"level of GAS6-dependent activation, well D7 (fold over non-activated cells)",[2],1.16
same,"level of GAS6-dependent activation, well D8 (fold over non-activated cells)",[2],2.12
same,"level of GAS6-dependent activation, well D9 (fold over non-activated cells)",[2],1.55
same,"level of GAS6-dependent activation, well D10 (fold over non-activated cells)",[2],1.68
same,"level of GAS6-dependent activation, well D11 (fold over non-activated cells)",[2],3.74
same,"level of GAS6-dependent activation, well D12 (fold over non-activated cells)",[2],1.23
same,"level of GAS6-dependent activation, well E1 (fold over non-activated cells)",[2],1.83
same,"level of GAS6-dependent activation, well E2 (fold over non-activated cells)",[2],0.93
same,"level of GAS6-dependent activation, well E3 (fold over non-activated cells)",[2],3.03
same,"level of GAS6-dependent activation, well E4 (fold over non-activated cells)",[2],1.18
same,"level of GAS6-dependent activation, well E5 (fold over non-activated cells)",[2],1.73
same,"level of GAS6-dependent activation, well E6 (fold over non-activated cells)",[2],1.51
same,"level of GAS6-dependent activation, well E7 (fold over non-activated cells)",[2],2.14
same,"level of GAS6-dependent activation, well E8 (fold over non-activated cells)",[2],1.13
same,"level of GAS6-dependent activation, well E9 (fold over non-activated cells)",[2],1.74
same,"level of GAS6-dependent activation, well E10 (fold over non-activated cells)",[2],1.55
same,"level of GAS6-dependent activation, well E11 (fold over non-activated cells)",[2],0.86
same,"level of GAS6-dependent activation, well E12 (fold over non-activated cells)",[2],1.03
same,"level of GAS6-dependent activation, well F1 (fold over non-activated cells)",[2],1.55
same,"level of GAS6-dependent activation, well F2 (fold over non-activated cells)",[2],1.34
same,"level of GAS6-dependent activation, well F3 (fold over non-activated cells)",[2],7.48
same,"level of GAS6-dependent activation, well F4 (fold over non-activated cells)",[2],1.79
same,"level of GAS6-dependent activation, well F5 (fold over non-activated cells)",[2],1.69
same,"level of GAS6-dependent activation, well F7 (fold over non-activated cells)",[2],2.89
same,"level of GAS6-dependent activation, well F8 (fold over non-activated cells)",[2],1.58
same,"level of GAS6-dependent activation, well F9 (fold over non-activated cells)",[2],1.53
same,"level of GAS6-dependent activation, well F10 (fold over non-activated cells)",[2],1.35
same,"level of GAS6-dependent activation, well F11 (fold over non-activated cells)",[2],1.29
same,"level of GAS6-dependent activation, well F12 (fold over non-activated cells)",[2],5.65
same,"level of GAS6-dependent activation, well G1 (fold over non-activated cells)",[2],2.05
same,"level of GAS6-dependent activation, well G2 (fold over non-activated cells)",[2],3.08
same,"level of GAS6-dependent activation, well G3 (fold over non-activated cells)",[2],2.51
same,"level of GAS6-dependent activation, well G4 (fold over non-activated cells)",[2],1.05
same,"level of GAS6-dependent activation, well G5 (fold over non-activated cells)",[2],1.55
same,"level of GAS6-dependent activation, well G7 (fold over non-activated cells)",[2],2.12
same,"level of GAS6-dependent activation, well G8 (fold over non-activated cells)",[2],2.51
same,"level of GAS6-dependent activation, well G9 (fold over non-activated cells)",[2],1.78
same,"level of GAS6-dependent activation, well G10 (fold over non-activated cells)",[2],2.5
same,"level of GAS6-dependent activation, well G11 (fold over non-activated cells)",[2],2.26
same,"level of GAS6-dependent activation, well G12 (fold over non-activated cells)",[2],3.43
same,"level of GAS6-dependent activation, well H11 (the pool) (fold over non-activated cells)",[2],3.61
same,"level of GAS6-dependent activation, well H12 (fold over non-activated cells)",[2],1.94
B1,response of the reporter cell line to IL10 activator,[3],dose-dependent response
B2,Level of GAS6-dependent activation (activation relative to non-activated cells),[4]; well H11 = initial pool (based on cl. D1),3.61
same,incubation time with the highest level of activation,"[4]; cl.13, FIG. 11",24 h
same,cell count per well with the highest level of activation,[5],"25,000-50,000 cells"
